Experimental data taken from US20200032265, “Oligonucleotide Probes and Uses Thereof” (CARIS SCIENCE, INC., published 2020).

Target: T1, EpCAM (UniProt P16422 P16422:24-265)
T1 sequence: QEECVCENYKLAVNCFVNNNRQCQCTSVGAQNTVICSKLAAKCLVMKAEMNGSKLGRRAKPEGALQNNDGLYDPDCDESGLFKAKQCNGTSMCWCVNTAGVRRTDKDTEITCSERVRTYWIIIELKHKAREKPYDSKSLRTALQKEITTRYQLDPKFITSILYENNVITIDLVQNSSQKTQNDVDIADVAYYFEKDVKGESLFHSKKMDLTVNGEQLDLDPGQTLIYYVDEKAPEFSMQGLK
Assay: stated only; no assay details

CCCCCCGAATCACATGACTTGGGCGGGGGTCG (ssDNA, 6-T 3' tail as spacer for biotin (shown in figure)) [Aptamer 4]
binding result: binds
